Tests used:
[1] = target: Clostridium difficile toxin B (TcdB) (Clostridium difficile, UniProt P18177); experiment: flow cytometry on cells
[2] = target: soluble biotinylated TcdB fragment (1401-1616) (Clostridioides difficile VP10463, UniProt P18177, biotin); experiment: flow cytometry on cells
Chain of soluble biotinylated TcdB fragment (1401-1616) (P18177 1401-1616): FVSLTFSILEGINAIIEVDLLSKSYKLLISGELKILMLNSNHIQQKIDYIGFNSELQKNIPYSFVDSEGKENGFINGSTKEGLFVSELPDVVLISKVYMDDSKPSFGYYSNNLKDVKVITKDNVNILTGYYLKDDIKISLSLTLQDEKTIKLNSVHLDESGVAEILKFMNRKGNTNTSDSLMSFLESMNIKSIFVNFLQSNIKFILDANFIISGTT

Chain of Clostridium difficile toxin B (TcdB) (P18177 whole entry, the tested form may be a part): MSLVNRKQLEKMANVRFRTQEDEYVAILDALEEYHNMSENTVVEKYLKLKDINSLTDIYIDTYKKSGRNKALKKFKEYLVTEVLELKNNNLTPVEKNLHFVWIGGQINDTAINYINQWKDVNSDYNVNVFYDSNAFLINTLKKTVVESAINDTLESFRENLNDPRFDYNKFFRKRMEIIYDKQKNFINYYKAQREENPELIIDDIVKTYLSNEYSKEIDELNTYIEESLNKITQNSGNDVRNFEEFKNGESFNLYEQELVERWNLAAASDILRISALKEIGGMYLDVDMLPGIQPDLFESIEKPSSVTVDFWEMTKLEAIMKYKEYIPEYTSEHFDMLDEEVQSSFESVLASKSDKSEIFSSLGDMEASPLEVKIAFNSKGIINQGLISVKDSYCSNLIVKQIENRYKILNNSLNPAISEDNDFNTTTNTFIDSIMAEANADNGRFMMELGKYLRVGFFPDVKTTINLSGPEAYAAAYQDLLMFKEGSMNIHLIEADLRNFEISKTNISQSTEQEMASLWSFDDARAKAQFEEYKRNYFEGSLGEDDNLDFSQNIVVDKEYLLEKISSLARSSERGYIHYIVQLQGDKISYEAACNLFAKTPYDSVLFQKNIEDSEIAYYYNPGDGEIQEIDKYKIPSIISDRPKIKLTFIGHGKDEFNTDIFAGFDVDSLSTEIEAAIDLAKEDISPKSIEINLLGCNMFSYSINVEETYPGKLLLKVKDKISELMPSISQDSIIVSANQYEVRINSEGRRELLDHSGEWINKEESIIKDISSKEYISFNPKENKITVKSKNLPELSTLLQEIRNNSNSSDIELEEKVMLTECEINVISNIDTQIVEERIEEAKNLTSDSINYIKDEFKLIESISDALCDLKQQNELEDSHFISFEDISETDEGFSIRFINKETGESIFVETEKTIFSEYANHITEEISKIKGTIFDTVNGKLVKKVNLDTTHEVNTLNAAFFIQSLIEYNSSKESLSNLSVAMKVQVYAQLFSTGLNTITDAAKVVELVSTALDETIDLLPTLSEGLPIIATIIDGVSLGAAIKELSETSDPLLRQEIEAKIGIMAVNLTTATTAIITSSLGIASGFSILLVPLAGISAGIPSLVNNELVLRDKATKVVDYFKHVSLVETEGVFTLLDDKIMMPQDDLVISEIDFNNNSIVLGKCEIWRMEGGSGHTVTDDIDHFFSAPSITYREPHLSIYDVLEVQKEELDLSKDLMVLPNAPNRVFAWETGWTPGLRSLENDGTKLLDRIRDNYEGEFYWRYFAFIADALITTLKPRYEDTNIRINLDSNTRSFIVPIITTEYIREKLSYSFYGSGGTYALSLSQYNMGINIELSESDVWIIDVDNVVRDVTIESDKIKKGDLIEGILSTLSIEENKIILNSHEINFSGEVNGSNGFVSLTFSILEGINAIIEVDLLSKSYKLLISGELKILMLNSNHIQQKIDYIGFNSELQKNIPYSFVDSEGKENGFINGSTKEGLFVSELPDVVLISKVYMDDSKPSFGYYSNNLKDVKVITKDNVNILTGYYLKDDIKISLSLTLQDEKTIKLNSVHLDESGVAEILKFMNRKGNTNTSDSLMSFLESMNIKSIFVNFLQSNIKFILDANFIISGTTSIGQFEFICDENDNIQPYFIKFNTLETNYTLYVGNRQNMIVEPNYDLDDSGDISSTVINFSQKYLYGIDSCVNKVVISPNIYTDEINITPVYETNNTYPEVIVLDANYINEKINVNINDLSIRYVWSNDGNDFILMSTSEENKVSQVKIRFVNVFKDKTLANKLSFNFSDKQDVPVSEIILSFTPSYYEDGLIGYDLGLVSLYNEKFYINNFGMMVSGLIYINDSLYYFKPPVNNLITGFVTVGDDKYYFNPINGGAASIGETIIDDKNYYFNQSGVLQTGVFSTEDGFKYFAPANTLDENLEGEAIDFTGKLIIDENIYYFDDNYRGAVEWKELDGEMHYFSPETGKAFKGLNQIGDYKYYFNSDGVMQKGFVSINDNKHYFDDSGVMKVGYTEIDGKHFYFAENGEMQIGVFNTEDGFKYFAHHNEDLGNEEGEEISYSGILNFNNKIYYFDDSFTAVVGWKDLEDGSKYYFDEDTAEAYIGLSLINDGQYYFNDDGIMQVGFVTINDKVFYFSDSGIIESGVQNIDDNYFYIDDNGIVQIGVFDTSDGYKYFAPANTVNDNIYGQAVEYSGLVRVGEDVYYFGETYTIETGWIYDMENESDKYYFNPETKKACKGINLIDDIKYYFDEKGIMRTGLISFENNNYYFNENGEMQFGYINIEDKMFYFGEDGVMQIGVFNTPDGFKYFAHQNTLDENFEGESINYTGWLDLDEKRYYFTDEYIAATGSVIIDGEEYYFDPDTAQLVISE

B1: scFv4-C-Myc construct displayed on yeast (scFv, V domains shown)
VH: EVQLVESGGGLVQPGGSLRLSCAASGFDLKEKYIHWVRQAPGKGLEWVARINVKTGSTRYADSVKGRFTISADTSKNTAYLQMNSLRAEDTAVYYCSRENRFGALTVWGQGTLVTVSS
VL: DIQMTQSPSSLSASVGDRVTITCTTSSYVPMLVSWYQQKPGKAPKLLIYSSVIRAPGVPSRFSGSRSGTDFTLTISSLQPEDFATYYCSVLQKDGNLVFGQGTKVEIK
binding result [1]: binds
binding result [2]: binds

From PMC10983868 (bioRxiv, 2025)
